Measured values: publication PMC4532856 (Nature Communications, 2015)
Blank lines part the entries; values can stand above or below the molecule they belong to.

Assays:
[1] = target: T1, full-length glucagon receptor purified from Sf9 membranes (Homo sapiens, UniProt P47871); experiment: negative-stain EM (random conical tilt 3D maps); purified GCGR in lauryl maltose neopentyl glycol mixed with mAb23 Fab, complex isolated by size exclusion chromatography, stained with 2% uranyl formate; conditions: both partners purified
T1 construct: glucagon receptor (GCGR), full-length construct; the small molecule NNC0640 was present throughout; also called full-length GCGR; GCGR; source: Sf9 membranes, solubilised in DDM/CHS, purified (talon resin), exchanged into lauryl maltose neopentyl glycol
T1 sequence (P47871 26-477): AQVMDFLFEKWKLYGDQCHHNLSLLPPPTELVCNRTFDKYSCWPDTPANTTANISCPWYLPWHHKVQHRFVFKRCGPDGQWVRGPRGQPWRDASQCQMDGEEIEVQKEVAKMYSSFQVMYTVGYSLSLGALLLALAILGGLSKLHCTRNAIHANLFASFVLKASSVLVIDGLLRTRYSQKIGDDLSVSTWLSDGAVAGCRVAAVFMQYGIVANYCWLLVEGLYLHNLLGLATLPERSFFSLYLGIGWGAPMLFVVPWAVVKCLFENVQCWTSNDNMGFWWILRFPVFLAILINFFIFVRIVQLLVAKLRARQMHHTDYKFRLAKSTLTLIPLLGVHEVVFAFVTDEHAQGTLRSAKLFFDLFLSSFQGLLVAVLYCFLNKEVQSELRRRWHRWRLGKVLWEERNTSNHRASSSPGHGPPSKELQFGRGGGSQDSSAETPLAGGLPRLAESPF

GCGR = conditions: cited from earlier work
[2] = target: T2, full-length glucagon receptor (GCGR), purified from Sf9 membranes for EM (Homo sapiens, UniProt P47871); experiment: negative-stain electron microscopy map (random conical tilt); mAb23 Fab mixed with detergent-purified GCGR (lauryl maltose neopentyl glycol, NNC0640), complex isolated by size exclusion chromatography; 2% uranyl formate stain; about 0.01 uM protein; conditions: both partners purified
T2 construct: glucagon receptor (GCGR), human, called the full-length construct; also called full-length GCGR; full-length construct
T2 sequence (P47871 26-477): as above

binding result [1]: binds
B1: antigen-binding fragment (Fab) of the monoclonal antibody mAb23 (Fab, V domains shown)
VH: EVQLVESGGGLVQPGGSLRLSCAASGFNIYYNYIHWVRQAPGKGLEWVAEFSPYSGSTYYADSVKGRFTISADTSKNTAYLQMNSLRAEDTAVYYCARSAAIVDWYDYFKGFDYWGQGTLVTVSS
VL: DIQMTQSPSSLSASVGDRVTITCRASQSVSSAVAWYQQKPGKAPKLLIYSASSLYSGVPSRFSGSRSGTDFTLTISSLQPEDFATYYCQQYGSYLYTFGQGTKVEIK
notes: The alignment numbers light chain 1-215 and heavy chain 216-443 in one run; also called mAb23 Fab; source: kindly provided by Genentech

B2: mAb23: monoclonal antibody that interacts with the ECD of GCGR; Fab kindly provided by Genentech (antibody, V domains shown)
VH: EVQLVESGGGLVQPGGSLRLSCAASGFNIYYNYIHWVRQAPGKGLEWVAEFSPYSGSTYYADSVKGRFTISADTSKNTAYLQMNSLRAEDTAVYYCARSAAIVDWYDYFKGFDYWGQGTLVTVSS
VL: DIQMTQSPSSLSASVGDRVTITCRASQSVSSAVAWYQQKPGKAPKLLIYSASSLYSGVPSRFSGSRSGTDFTLTISSLQPEDFATYYCQQYGSYLYTFGQGTKVEIK
effect on glucagon binding to the receptor (GCGR): preventing glucagon from binding to the receptor

binding result [2]: binds
B3: antigen-binding fragment (Fab) of the monoclonal antibody mAb23 (Fab, V domains shown)
VH: EVQLVESGGGLVQPGGSLRLSCAASGFNIYYNYIHWVRQAPGKGLEWVAEFSPYSGSTYYADSVKGRFTISADTSKNTAYLQMNSLRAEDTAVYYCARSAAIVDWYDYFKGFDYWGQGTLVTVSS
VL: DIQMTQSPSSLSASVGDRVTITCRASQSVSSAVAWYQQKPGKAPKLLIYSASSLYSGVPSRFSGSRSGTDFTLTISSLQPEDFATYYCQQYGSYLYTFGQGTKVEIK
notes: Related to mAb1, whose Fab is in PDB 4ERS (cited); also called mAb23 Fab; source: kindly provided by Genentech
